Literature values in patent US11414673B2, “Hypersensitive ABA receptors having modified PP2C-binding interfaces” (THE REGENTS OF THE UNIVERSITY OF CALIFORNIA, priority 2017, dated 2022).

Tested on: ABA responses
Conditions: Pizzio et al., Plant Physiol. 163, 441-455 (2013)

B1: PYL4^A194T: PYL4 ABA receptor with A194T mutation in its carboxyl terminus, described by Pizzio et al. (protein, UniProt O80920 1-207, looked up, variant A194T)
Abscisic acid receptor PYL4: MLAVHRPSSAVSDGDSVQIPMMIASFQKRFPSLSRDSTAARFHTHEVGPNQCCSAVIQEISAPISTVWSVVRRFDNPQAYKHFLKSCSVIGGDGDNVGSLRQVHVVSGLPAASSTERLDILDDERHVISFSVVGGDHRLSNYRSVTTLHPSPISGTVVVESYVVDVPPGNTKEETCDFVDVIVRCNLQSLAKITENTAAESKKKMSL
- ABA concentration needed to elicit measured ABA responses, in comparison to wild type PYL4: requires lower concentrations of ABA
